Legend:
[1] = system: hMPV F protein of rhMPV/NL/1/00/101P (RQPR cleavage motif)
[2] = system: hMPV F protein of rhMPV/NL/1/00/101S (RQSR cleavage motif)
[3] = system: hMPV F protein of rhMPV/NL/1/99/101S (subtype B1)

TPCK trypsin (Sigma)
cleavage of vectored hMPV F (b/h PIV3), Western blot [1]: In the presence of trypsin, the vectored F proteins of both hMPV/NL/1/00/101P and hMPV/NL/1/00/101S were partially cleaved to the same extent as the F protein expressed from the wt hMPV/NL/1/00
cleavage of hMPV F (F0 to F1), Western blot [2]: hMPV F containing 101S was cleaved only when the protein was exposed to trypsin
cleavage of vectored hMPV F (b/h PIV3), Western blot [2]: In the presence of trypsin, the vectored F proteins of both hMPV/NL/1/00/101P and hMPV/NL/1/00/101S were partially cleaved to the same extent as the F protein expressed from the wt hMPV/NL/1/00
cleavage of hMPV F (F0 to F1), Western blot [3]: hMPV F/101S showed no cleavage in the absence of trypsin, but in the presence of trypsin, the F1 fragment was readily detected
